Data reported in patent US20240182911A1 (University of California, published 2024).
Positions count from the first letter of the chain named. In names and notes the source's numbering stands.

T1: angiotensin II type 1 receptor (AT1R) with FLAG peptide fused to its N-terminus (human, UniProt P30556 2-359)
T1 construct: also called AT1R-angiotensin II complex
T1 sequence: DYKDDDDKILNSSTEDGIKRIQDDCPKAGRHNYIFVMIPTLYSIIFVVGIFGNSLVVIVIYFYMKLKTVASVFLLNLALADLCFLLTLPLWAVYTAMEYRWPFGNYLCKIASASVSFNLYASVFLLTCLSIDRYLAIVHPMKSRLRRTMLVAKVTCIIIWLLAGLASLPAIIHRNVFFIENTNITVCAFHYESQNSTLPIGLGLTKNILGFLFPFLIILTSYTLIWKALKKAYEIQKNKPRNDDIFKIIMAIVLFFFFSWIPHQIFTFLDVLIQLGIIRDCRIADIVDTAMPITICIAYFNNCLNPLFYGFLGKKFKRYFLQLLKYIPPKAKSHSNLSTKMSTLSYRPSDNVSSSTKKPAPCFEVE

B1: Nb.b201i3 (VHH)
VHH: QVQLQESGGGLVQAGGSLRLSCAASGYISDAYYMGWYRQAPGKEREFVATITHGTNTYYADSVKGRFTISRDNAKNTVYLQMNSLKPEDTAVYYCAVLETRSYSFRYWGQGTQVTVSS
notes: also called Nb.b201 mutants
B2: Nb.b201i1 (VHH)
VHH: B1 VHH with E46G
notes: also called Nb.b201 mutants
B3: Nb.b201 (VHH)
VHH: B1 VHH with N83Y
notes: also called nanobody Nb.b201
B4: AT110 (VHH)
VHH: QVQLQESGGGLVQAGGSLRLSCAASGNIFDADIMGWYRQAPGKERELVASITDGGSTNYADSVKGRFTISRDNAKNTVYLQMNSLKPEDTAVYYCAAIAYPDIPTYFDYDSDYFYWGQGTQVTVSS
notes: also called nanobody AT110
B5: AT110i103 (VHH)
VHH: B4 VHH with R66H, I98V, Y113H
B6: AT110i102 (VHH)
VHH: B4 VHH with R66H, I98V
B7: AT110i104 (VHH)
VHH: B4 VHH with R66H
notes: also called AT110 R66H; single mutation R66H
B8: AT110 R45C (VHH)
VHH: B4 VHH with R45C
notes: also called dominant mutation R45C
B9: AT110 Y113H (VHH)
VHH: B4 VHH with Y113H
notes: also called single mutation Y113H
B10: AT110i101 (VHH)
VHH: B4 VHH with I98V
notes: also called AT110 I98V; dominant mutation 198V (so in the source)

What follows are binders tested against human serum albumin (HSA) (human, UniProt P02768 25-609) (assay: on-yeast binding assay: yeast-displayed nanobody, titration of HSA, n=3, EC50 from curve fit).

Row | Binder | EC50 [nM]
1 | B1 | 5.4
2 | B2 | 8
3 | B3 | 18

The binders below were run against T1, angiotensin II type 1 receptor (AT1R) … (assay: on-yeast binding assay: yeast-displayed nanobody, titration of AT1R-angiotensin II complex, single replicate, EC50 from curve fit).

Row | Binder | EC50 [nM]
4 | B4 | 257
5 | B5 | 20
6 | B6 | 14
7 | B7 | 133
8 | B8 | 15
9 | B9 | 35
10 | B10 | 48

What follows are binders tested against T1, angiotensin II type 1 receptor (AT1R) … (assay: radioligand competition binding assay on AT1R (nanobody stabilises agonist binding in the presence of antagonist; radioligand not named), three independent experiments; column headed Affinity).

Row | Binder | IC50 [nM]
11 | B4 | 50
12 | B5 | 2.5
13 | B6 | 5
14 | B7 | 31
15 | B9 | 63
16 | B10 | 15
